These results are taken from publication PMC6457538.

The series has as its target HoLaMa DNA polymerase (Klenow sub-fragment lacking the 3'-5' exonuclease domain) (UniProt P00582). Nature of the series: intrinsic tryptophan fluorescence quenching titration. The settings on record: 500 nM enzyme; n = 1.24 ± 0.03 DNA per enzyme; no dNTP; Kd titration: 50 mM sodium phosphate pH 8.0, 50 mM NaCl, temperature not stated in the material; stopped-flow: 50 mM Tris-HCl pH 8.0, 0.5 mM EDTA, 10 mM MgCl2 ….
Chain of UniProt P00582 (P00582 whole entry, the tested form may be a part): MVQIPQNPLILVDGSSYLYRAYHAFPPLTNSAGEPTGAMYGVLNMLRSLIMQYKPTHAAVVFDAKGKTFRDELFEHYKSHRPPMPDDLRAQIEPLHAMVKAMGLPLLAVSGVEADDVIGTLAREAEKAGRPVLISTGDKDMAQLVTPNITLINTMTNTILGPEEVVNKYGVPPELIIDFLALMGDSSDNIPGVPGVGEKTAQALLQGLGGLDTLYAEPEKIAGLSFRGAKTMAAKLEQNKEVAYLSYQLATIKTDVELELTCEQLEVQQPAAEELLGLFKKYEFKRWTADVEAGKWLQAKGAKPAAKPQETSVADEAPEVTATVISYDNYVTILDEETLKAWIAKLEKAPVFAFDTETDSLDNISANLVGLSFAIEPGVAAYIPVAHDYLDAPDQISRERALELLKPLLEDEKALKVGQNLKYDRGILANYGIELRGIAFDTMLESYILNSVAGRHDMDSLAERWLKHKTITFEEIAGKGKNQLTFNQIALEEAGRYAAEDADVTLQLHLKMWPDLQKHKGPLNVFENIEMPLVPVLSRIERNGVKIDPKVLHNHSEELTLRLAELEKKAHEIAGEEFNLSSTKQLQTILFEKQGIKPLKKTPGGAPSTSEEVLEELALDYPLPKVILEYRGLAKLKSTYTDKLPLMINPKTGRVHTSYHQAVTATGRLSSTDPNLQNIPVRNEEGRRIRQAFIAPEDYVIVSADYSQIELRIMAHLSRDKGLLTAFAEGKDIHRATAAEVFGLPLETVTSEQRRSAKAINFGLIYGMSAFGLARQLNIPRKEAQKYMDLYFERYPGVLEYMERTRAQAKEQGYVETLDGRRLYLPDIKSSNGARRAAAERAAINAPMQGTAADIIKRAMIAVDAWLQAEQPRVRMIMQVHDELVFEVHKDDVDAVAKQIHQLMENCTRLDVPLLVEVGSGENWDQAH

What is called Kd is the free concentration of one partner at which half of the binding sites on the other are occupied at equilibrium, for simple one-to-one binding. A lower Kd goes with tighter binding. Consider “AAAAAAAAAAAAAAAAAAAAAAAAAAAAAAAAGCGCGCGC / GCGCGCGCTTTTTTT [40mer polyA DNA (40mer template / 15mer primer)]”, for which the equilibrium dissociation constant (Kd) was 35.1 nM.
